According to the nanobody polyreactivity screen of Harvey et al. (2022):

Assay: yeast display, Sf9 membrane polyspecificity reagent, FACS + sequencing; frameworks hold sequencing errors
Outline: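 Sorting gates, low and high (top ~1%), were placed on anti-HA fluorescence to track expression and on streptavidin fluorescence to track reagent binding. A clone's polyreactivity label is taken from the gate it came out of. The reagent was 10% biotinylated, detergent-solubilized Sf9 membrane, applied for 1 hour at 4 °C to galactose-induced yeast display cells.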

Sequence	polyreactivity (PSR sort gate)
QVQLVESGGGLVQAGGSLRLSCAASGRIFSYNARGWYRQAPGKEWELVAAISSGGSTYYADSVKGRFTISRDNAKKTVYLQMNSLKPEDTAVYYCAADRRYYSDLYYWGQGTQVTVSS	low polyreactivity
QVQLVESGGGLVQAGGSLRLSCAASGRIFSYNTMGWYRQAPGKERELVAAISCSGGSTSYADSVKGRFTISRDNAKNTVYLQMNSLKPEDTAVYYCATGSKRNPFYRGNYWGQGTQVTVSS	low polyreactivity
QVQLVESGGGLVQAGGSLRLSCAASGRIFSYYAMGWSRQAPGNERELVAAITWSGGRTYYADSVKGRFTISRDNAKNTVYLQMNSLNPEDTAVYYCAADYYYGSLWDNKLGYWGQGTQVTVSS	high polyreactivity
QVQLVESGGGLVQAGGSLRLSCAASGRIFSYYAMGWYRQAPGKDRELVAAISRSGGRTYYADSVKGRFTISRDNAKNTVYLQMNSLNPEDTAVYYCAATFSRGYDYWGQGTQVTVSS	high polyreactivity
QVQLVESGGGLVQAGGSLRLSCAASGRIFSYYAMGWYRQAPGKERELVAAISRSGVRTYYADSVKGRFTISRDNAKNTVYLQMNSLKAEDTAVYYCAASGKRFAYIKGRSRPAYGYDYWGQGTQVTVSS	high polyreactivity
QVQLVESGGGLVQAGGSLRLSCAASGRIFSYYAMGWYRQAPGKERELVAAISRTGGTTYYADSVKGRFTISRDTAKNTVFLQMNSLKPEDTAVYYCNAVKAPYLRYDYWGQGTQVTVSS	high polyreactivity
QVQLVESGGGLVQAGGSLRLSCAASGRIFSYYAMGWYRQAPGKERELVASITWSGGSTYYADSVKGRFTISRDYAKNTVYLQMNRLKPEDTAVYYCNTAVLAPYDSGYWGQGTQVTVSS	low polyreactivity
QVQLVESGGGLVQAGGSLRLSCAASGRIFSYYDMGWYRQAPGKEREFVAGITWNGGSTYYADSVKGRFTISRDNAKNTVYLQMNSLKPEDTAVYYCAAGVWRTRDWTYYYWGQGTQVTVSS	high polyreactivity
QVQLVESGGGLVQAGGSLRLSCAASGRIFSYYTMGWYRQAPGKERELVAAITSGDSTNYADSVKGRFTISRDNAKNTVYLQMNSLKPEDTAVYYCNARYSGWRSRVGSSHRPDGYWGQGTQVTVSS	high polyreactivity
QVQLVESGGGLVQAGGSLRLSCAASGRIFTAYTMGWYRQAPGKERELVAAISTSGTSTYYADSVKGRFTISRDNAKNTVYLQMNSLKPEDTAVYYCATDYYYYPHSQYDYWGQGTQVTVSS	low polyreactivity
QVQLVESGGGLVQAGGSLRLSCAASGRIFTCYAMGWYRQAPGKERELVAAISSAGRTYYADSVKGRFTISRDNAKNTVYLQMNSLKPEDSAVYYCAKVSKYRHFYTFDYWGQGTQVTVSS	high polyreactivity
QVQLVESGGGLVQAGGSLRLSCAASGRIFTDYAMGWYRQAPGKERELVAAISSGGSTYYADSVKGRFTISRDNAKNTVYLQMNSLKPEDTAVYFCAAELFYGRSSSGYYYWGQGTQVTVSS	high polyreactivity
QVQLVESGGGLVQAGGSLRLSCAASGRIFTGYAMGWYRQAPGKERELVAAISSSGGTTYYADSVKGRFTISRDNAKNTVYLQMNSLKPEDTAVYYCATDYSYSVDALKYLLYDYWGQGTQVTVSS	low polyreactivity
QVQLVESGGGLVQAGGSLRLSCAASGRIFTGYAMGWYRQAPGKEREVVAAISRGGSTNYADSVKGRFTISRDNAKNTVYLQMNSLKPEDTAVYYCAAGVHWDRGDYWGQGTQVNVSS	low polyreactivity
QVQLVESGGGLVQAGGSLRLSCAASGRIFTGYVMGWYRQAPGKERELVAAITYTGGSTFYADSVKGRFTISRDNAKNTVYLQMNSLKPEDTAVYYCAADESPYFLDIVTYYEFDYWGQGTQVTVSS	low polyreactivity
QVQLVESGGGLVQAGGSLRLSCAASGRIFTHNAMGWYRQAPGKERELVAAISYSGVSTYYADSVKGRFTISRDNAKNTVYLQMNSLKPEDTAVYYCAARSRSWRQRYGDFDYWGQGTQVTVSS	low polyreactivity
QVQLVESGGGLVQAGGSLRLSCAASGRIFTHNAMGWYRQAPGKERELVAAISYSGVSTYYADSVKGRFTISRDNAKNTVYLQMNSLKPEDTAVYYCNALIQSWRARIRRYYWGQGTQVTVSS	low polyreactivity
